According to patent publication US20190008977A1 (ASCENDIS PHARMA GROWTH DISORDERS A S, published 2019):
Bridge positions count the residues as written; N and C are the ends. Side chains are listed from the residue outwards. Ends that are not written are not given here. * marks the point of attachment. Hexanoyl(6-maleimido) = O=C1C=CC(=O)N1CCCCCC(=O)*; reversible prodrug linker = not defined here

Key:
[1] = target: T1, permanent Lys26 CNP-38 PEG4x10 kDa conjugate 12g
T1 chain: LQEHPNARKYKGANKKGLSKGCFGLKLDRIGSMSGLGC

[2] = target: T2, permanent N-terminal CNP-34 PEG 5 kDa conjugate 14e
T2 chain: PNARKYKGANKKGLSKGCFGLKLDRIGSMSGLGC

[3] = target: T3, permanent N-terminal CNP-38 PEG 5 kDa conjugate 15e
T3 chain: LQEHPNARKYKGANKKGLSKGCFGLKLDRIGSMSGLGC

[4] = target: T4, NPR-B expressed endogenously on NIH-3T3 cells (Murine Embryo Fibroblast cell line) (mouse (endogenous in the murine NIH-3T3 …, UniProt Q6VVW5 17-1047)); test: cell-based or functional assay
T4 sequence (looked up): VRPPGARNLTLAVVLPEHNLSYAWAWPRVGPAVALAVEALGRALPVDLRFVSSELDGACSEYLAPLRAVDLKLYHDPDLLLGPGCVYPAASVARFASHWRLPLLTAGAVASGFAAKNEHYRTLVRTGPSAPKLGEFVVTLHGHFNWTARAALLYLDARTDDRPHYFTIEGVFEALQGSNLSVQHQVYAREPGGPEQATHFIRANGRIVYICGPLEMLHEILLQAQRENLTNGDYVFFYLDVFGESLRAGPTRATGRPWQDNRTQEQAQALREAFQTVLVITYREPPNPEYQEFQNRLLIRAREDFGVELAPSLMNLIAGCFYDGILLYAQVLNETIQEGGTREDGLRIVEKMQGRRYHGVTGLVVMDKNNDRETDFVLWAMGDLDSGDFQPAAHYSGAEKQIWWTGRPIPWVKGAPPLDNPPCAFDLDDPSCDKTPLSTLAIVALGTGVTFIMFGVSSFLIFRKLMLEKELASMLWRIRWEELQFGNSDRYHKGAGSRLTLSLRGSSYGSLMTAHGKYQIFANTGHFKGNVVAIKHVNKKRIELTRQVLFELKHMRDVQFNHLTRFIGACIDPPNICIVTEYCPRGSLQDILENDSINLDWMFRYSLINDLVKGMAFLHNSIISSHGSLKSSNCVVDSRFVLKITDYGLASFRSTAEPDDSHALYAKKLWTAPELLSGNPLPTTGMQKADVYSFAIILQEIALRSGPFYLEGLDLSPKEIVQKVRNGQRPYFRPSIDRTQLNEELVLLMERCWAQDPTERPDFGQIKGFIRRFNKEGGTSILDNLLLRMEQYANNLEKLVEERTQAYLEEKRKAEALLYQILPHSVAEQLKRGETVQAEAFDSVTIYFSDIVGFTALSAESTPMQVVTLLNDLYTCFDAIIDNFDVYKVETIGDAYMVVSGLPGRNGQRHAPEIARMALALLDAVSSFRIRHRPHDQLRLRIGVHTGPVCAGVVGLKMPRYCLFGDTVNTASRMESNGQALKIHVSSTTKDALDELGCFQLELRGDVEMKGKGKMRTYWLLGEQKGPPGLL

[5] = target: T4, NPR-B expressed endogenously on NIH-3T3 …; test: cell-based or functional assay; remark: listed apart in the source

B1: recombinant human Neutral Endopeptidase (NEP) (protein)
chain: YDDGICKSSDCIKSAARLIQNMDATTEPCTDFFKYACGGWLKRNVIPETSSRYGNFDILRDELEVVLKDVLQEPKTEDIVAVQKAKALYRSCINESAIDSRGGEPLLKLLPDIYGWPVATENWEQKYGASWTAEKAIAQLNSKYGKKVLINLFVGTDDKNSVNHVIHIDQPRLGLPSRDYYECTGIYKEACTAYVDFMISVARLIRQEERLPIDENQLALEMNKVMELEKEIANATAKPEDRNDPMLLYNKMTLAQIQNNFSLEINGKPFSWLNFTNEIMSTVNISITNEEDVVVYAPEYLTKLKPILTKYSARDLQNLMSWRFIMDLVSSLSRTYKESRNAFRKALYGTTSETATWRRCANYVNGNMENAVGRLYVEAAFAGESKHVVEDLIAQIREVFIQTLDDLTWMDAETKKRAEEKALAIKERIGYPDDIVSNDNKLNNEYLELNYKEDEYFENIIQNLKFSQSKQLKKLREKVDKDEWISGAAVVNAFYSSGRNQIVFPAGILQPPFFSAQQSNSLNYGGIGMVIGHEITHGFDDNGRNFNKDGDLVDWWTQQSASNFKEQSQCMVYQYGNFSWDLAGGQHLNGINTLGENIADNGGLGQAYRAYQNYIKKNGEEKLLPGLDLNHKQLFFLNFAQVWCGTYRPEYAVNSIKTDVHSPGNFRIIGTLQNSAEFSEAFHCRKNSYMNPEKKCRVW
[1]
  half life norm. [h] (in vitro NEP cleavage assay): Almost no proteolysis after 4 days.
[2]
  half life norm. [h] (in vitro NEP cleavage assay): Almost no proteolysis after 4 days.
[3]
  half life norm. [h] (in vitro NEP cleavage assay): Almost no proteolysis after 4 days.

## {PEG 5 kDa-Hexanoyl(6-maleimido)}-LQEHPNARKYKGANKKGLSKGCFGLKLDRIGSMSGLGC (disulfide 22-38) [permanent N-terminal CNP-38 PEG 5 kDa conjugate 15e]
[4]
  EC50 compound/EC50 CNP-38 (cGMP stimulation in NIH-3T3 cells, residual NPR-B activity): > 5 ratio

B2: permanent Lys26 CNP-38 PEG 5 kDa conjugate 19e (peptide)
peptide: LQEHPNARKYKGANKKGLSKGCFGLKLDRIGSMSGLGC
modifications: 5 kDa PEG stably attached through a maleimidohexanoyl group at the side chain of Lys26 (ring lysine); disulfide Cys22-Cys38
[4]
  EC50 compound/EC50 CNP-38 (cGMP stimulation in NIH-3T3 cells, residual NPR-B activity): > 100 ratio

## LQEHPNARKYKGANKKGLSKGCFGLK(branched PEG 4x10 kDa)LDRIGSMSGLGC (disulfide 22-38) [permanent Lys26 CNP-38 PEG4x10 kDa conjugate 12g]
[4]
  EC50 compound/EC50 CNP-38 (cGMP stimulation in NIH-3T3 cells, residual NPR-B activity): > 100 ratio

## LQEHPNARKYKGANKKGLSKGCFGLK([reversible prodrug linker-branched PEG 4x10 kDa])LDRIGSMSGLGC (disulfide 22-38; reading uncertain) [reversible Lys26 CNP-38 PEG4x10 kDa conjugate 11i]
[4]
  EC50 compound/EC50 CNP-38 (cGMP stimulation in NIH-3T3 cells, residual NPR-B activity): > 100 ratio

## LQEHPNARKYKGANKKGLSKGCFGLK([reversible prodrug linker-branched PEG 2x20 kDa])LDRIGSMSGLGC (disulfide 22-38; reading uncertain) [reversible Lys26 CNP-38 PEG2x20 kDa conjugate 10f]
[4]
  EC50 compound/EC50 CNP-38 (cGMP stimulation in NIH-3T3 cells, residual NPR-B activity): > 100 ratio

## LQEHPNARKYKGANKKGLSKGCFGLKLDRIGSMSGLGC (disulfide 22-38) [Released CNP-38 (isolated by RP-HPLC after 7 d incubation of 11i under physiological conditions)]
[5]
  EC50 compound/EC50 CNP-38 (cGMP stimulation in NIH-3T3 cells): 1 ratio
